From IntAct's records for PubMed 20477991

B1: Phospholipid-transporting ATPase NEO1 (Saccharomyces cerevisiae), P40527 (parent)
chain: MPNPPSFKSHKQNLFNSNNNQHANSVDSFDLHLDDSFDAALDSLQINNNPEPLSKHNTVGDRESFEMRTVDDLDNFSNHSSDSHRKSSNTDTHPLMYDNRLSQDDNFKFTNIASSPPSSSNNIFSKALSYLKVSNTKNWSKFGSPIELSDQHIEREIHPDTTPVYDRNRYVSNELSNAKYNAVTFVPTLLYEQFKFFYNLYFLVVALSQAVPALRIGYLSSYIVPLAFVLTVTMAKEAIDDIQRRRRDRESNNELYHVITRNRSIPSKDLKVGDLIKVHKGDRIPADLVLLQSSEPSGESFIKTDQLDGETDWKLRVACPLTQNLSENDLINRISITASAPEKSIHKFLGKVTYKDSTSNPLSVDNTLWANTVLASSGFCIACVVYTGRDTRQAMNTTTAKVKTGLLELEINSISKILCACVFALSILLVAFAGFHNDDWYIDILRYLILFSTIIPVSLRVNLDLAKSVYAHQIEHDKTIPETIVRTSTIPEDLGRIEYLLSDKTGTLTQNDMQLKKIHLGTVSYTSETLDIVSDYVQSLVSSKNDSLNNSKVALSTTRKDMSFRVRDMILTLAICHNVTPTFEDDELTYQAASPDEIAIVKFTESVGLSLFKRDRHSISLLHEHSGKTLNYEILQVFPFNSDSKRMGIIVRDEQLDEYWFMQKGADTVMSKIVESNDWLEEETGNMAREGLRTLVIGRKKLNKKIYEQFQKEYNDASLSMLNRDQQMSQVITKYLEHDLELLGLTGVEDKLQKDVKSSIELLRNAGIKIWMLTGDKVETARCVSISAKLISRGQYVHTITKVTRPEGAFNQLEYLKINRNACLLIDGESLGMFLKHYEQEFFDVVVHLPTVIACRCTPQQKADVALVIRKMTGKRVCCIGDGGNDVSMIQCADVGVGIVGKEGKQASLAADFSITQFCHLTELLLWHGRNSYKRSAKLAQFVMHRGLIIAICQAVYSICSLFEPIALYQGWLMVGYATCYTMAPVFSLTLDHDIEESLTKIYPELYKELTEGKSLSYKTFFVWVLLSLFQGSVIQLFSQAFTSLLDTDFTRMVAISFTALVVNELIMVALEIYTWNKTMLVTEIATLLFYIVSVPFLGDYFDLGYMTTVNYYAGLLVILLISIFPVWTAKAIYRRLHPPSYAKVQEFATP

Variants of: B1
Conditions: with dop1_yeast DOP1, Q03921
dop1_yeast DOP1, Q03921, sequence (Q03921 whole entry): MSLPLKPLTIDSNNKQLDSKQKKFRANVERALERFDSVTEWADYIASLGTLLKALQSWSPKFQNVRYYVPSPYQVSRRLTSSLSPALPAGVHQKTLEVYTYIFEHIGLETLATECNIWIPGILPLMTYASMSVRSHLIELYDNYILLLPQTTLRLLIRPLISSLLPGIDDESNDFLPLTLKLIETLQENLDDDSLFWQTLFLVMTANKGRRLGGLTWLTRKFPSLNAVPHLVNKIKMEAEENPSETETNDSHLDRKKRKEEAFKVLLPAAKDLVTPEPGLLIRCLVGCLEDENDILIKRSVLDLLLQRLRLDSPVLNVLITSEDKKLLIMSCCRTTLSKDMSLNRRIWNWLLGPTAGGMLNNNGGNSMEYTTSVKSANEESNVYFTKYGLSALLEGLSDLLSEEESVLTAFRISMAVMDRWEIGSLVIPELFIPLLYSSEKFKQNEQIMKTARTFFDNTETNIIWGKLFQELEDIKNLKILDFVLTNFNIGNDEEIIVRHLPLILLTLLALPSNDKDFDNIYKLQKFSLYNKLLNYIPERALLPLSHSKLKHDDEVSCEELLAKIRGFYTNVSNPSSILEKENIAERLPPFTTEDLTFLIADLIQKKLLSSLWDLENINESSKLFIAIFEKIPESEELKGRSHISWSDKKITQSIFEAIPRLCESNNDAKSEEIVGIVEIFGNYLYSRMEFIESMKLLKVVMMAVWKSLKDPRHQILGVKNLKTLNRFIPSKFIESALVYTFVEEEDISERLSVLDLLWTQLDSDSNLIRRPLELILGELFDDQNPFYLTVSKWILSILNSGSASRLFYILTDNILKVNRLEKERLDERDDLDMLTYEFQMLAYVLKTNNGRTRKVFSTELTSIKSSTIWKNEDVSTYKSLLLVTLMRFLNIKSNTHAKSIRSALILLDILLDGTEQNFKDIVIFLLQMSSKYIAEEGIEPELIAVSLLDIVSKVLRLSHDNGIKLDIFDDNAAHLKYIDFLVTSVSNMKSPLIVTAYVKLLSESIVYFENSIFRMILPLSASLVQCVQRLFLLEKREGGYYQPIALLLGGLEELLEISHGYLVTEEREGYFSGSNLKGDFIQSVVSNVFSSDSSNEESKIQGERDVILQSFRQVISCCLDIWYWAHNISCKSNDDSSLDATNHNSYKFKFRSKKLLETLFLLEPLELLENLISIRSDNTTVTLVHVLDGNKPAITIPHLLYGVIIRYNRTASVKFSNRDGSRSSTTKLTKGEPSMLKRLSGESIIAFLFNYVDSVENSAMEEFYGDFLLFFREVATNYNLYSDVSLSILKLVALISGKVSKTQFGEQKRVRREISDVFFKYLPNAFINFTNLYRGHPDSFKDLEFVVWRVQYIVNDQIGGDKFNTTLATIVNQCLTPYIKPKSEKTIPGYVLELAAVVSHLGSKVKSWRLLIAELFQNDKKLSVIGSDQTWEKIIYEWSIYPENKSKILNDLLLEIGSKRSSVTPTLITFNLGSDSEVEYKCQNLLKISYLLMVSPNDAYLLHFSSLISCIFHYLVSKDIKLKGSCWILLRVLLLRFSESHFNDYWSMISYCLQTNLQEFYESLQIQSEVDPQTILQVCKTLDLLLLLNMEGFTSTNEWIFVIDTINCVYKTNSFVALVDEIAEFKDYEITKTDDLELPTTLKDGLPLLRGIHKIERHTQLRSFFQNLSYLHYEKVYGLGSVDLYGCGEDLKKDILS

effect of a mutation on the interaction | Variant
decreasing interaction strength | F301S;D305G;V373A;S539P;L540P;N631S;Q655R;V748A
with no effect | I284T;I449M;E605G;L680P;Y714H
